Target: cardiac ryanodine receptor (RyR2) (rat (endogenous in ventricular myocytes)) (UniProt B0LPN4)
Chain of UniProt B0LPN4 (B0LPN4 whole entry): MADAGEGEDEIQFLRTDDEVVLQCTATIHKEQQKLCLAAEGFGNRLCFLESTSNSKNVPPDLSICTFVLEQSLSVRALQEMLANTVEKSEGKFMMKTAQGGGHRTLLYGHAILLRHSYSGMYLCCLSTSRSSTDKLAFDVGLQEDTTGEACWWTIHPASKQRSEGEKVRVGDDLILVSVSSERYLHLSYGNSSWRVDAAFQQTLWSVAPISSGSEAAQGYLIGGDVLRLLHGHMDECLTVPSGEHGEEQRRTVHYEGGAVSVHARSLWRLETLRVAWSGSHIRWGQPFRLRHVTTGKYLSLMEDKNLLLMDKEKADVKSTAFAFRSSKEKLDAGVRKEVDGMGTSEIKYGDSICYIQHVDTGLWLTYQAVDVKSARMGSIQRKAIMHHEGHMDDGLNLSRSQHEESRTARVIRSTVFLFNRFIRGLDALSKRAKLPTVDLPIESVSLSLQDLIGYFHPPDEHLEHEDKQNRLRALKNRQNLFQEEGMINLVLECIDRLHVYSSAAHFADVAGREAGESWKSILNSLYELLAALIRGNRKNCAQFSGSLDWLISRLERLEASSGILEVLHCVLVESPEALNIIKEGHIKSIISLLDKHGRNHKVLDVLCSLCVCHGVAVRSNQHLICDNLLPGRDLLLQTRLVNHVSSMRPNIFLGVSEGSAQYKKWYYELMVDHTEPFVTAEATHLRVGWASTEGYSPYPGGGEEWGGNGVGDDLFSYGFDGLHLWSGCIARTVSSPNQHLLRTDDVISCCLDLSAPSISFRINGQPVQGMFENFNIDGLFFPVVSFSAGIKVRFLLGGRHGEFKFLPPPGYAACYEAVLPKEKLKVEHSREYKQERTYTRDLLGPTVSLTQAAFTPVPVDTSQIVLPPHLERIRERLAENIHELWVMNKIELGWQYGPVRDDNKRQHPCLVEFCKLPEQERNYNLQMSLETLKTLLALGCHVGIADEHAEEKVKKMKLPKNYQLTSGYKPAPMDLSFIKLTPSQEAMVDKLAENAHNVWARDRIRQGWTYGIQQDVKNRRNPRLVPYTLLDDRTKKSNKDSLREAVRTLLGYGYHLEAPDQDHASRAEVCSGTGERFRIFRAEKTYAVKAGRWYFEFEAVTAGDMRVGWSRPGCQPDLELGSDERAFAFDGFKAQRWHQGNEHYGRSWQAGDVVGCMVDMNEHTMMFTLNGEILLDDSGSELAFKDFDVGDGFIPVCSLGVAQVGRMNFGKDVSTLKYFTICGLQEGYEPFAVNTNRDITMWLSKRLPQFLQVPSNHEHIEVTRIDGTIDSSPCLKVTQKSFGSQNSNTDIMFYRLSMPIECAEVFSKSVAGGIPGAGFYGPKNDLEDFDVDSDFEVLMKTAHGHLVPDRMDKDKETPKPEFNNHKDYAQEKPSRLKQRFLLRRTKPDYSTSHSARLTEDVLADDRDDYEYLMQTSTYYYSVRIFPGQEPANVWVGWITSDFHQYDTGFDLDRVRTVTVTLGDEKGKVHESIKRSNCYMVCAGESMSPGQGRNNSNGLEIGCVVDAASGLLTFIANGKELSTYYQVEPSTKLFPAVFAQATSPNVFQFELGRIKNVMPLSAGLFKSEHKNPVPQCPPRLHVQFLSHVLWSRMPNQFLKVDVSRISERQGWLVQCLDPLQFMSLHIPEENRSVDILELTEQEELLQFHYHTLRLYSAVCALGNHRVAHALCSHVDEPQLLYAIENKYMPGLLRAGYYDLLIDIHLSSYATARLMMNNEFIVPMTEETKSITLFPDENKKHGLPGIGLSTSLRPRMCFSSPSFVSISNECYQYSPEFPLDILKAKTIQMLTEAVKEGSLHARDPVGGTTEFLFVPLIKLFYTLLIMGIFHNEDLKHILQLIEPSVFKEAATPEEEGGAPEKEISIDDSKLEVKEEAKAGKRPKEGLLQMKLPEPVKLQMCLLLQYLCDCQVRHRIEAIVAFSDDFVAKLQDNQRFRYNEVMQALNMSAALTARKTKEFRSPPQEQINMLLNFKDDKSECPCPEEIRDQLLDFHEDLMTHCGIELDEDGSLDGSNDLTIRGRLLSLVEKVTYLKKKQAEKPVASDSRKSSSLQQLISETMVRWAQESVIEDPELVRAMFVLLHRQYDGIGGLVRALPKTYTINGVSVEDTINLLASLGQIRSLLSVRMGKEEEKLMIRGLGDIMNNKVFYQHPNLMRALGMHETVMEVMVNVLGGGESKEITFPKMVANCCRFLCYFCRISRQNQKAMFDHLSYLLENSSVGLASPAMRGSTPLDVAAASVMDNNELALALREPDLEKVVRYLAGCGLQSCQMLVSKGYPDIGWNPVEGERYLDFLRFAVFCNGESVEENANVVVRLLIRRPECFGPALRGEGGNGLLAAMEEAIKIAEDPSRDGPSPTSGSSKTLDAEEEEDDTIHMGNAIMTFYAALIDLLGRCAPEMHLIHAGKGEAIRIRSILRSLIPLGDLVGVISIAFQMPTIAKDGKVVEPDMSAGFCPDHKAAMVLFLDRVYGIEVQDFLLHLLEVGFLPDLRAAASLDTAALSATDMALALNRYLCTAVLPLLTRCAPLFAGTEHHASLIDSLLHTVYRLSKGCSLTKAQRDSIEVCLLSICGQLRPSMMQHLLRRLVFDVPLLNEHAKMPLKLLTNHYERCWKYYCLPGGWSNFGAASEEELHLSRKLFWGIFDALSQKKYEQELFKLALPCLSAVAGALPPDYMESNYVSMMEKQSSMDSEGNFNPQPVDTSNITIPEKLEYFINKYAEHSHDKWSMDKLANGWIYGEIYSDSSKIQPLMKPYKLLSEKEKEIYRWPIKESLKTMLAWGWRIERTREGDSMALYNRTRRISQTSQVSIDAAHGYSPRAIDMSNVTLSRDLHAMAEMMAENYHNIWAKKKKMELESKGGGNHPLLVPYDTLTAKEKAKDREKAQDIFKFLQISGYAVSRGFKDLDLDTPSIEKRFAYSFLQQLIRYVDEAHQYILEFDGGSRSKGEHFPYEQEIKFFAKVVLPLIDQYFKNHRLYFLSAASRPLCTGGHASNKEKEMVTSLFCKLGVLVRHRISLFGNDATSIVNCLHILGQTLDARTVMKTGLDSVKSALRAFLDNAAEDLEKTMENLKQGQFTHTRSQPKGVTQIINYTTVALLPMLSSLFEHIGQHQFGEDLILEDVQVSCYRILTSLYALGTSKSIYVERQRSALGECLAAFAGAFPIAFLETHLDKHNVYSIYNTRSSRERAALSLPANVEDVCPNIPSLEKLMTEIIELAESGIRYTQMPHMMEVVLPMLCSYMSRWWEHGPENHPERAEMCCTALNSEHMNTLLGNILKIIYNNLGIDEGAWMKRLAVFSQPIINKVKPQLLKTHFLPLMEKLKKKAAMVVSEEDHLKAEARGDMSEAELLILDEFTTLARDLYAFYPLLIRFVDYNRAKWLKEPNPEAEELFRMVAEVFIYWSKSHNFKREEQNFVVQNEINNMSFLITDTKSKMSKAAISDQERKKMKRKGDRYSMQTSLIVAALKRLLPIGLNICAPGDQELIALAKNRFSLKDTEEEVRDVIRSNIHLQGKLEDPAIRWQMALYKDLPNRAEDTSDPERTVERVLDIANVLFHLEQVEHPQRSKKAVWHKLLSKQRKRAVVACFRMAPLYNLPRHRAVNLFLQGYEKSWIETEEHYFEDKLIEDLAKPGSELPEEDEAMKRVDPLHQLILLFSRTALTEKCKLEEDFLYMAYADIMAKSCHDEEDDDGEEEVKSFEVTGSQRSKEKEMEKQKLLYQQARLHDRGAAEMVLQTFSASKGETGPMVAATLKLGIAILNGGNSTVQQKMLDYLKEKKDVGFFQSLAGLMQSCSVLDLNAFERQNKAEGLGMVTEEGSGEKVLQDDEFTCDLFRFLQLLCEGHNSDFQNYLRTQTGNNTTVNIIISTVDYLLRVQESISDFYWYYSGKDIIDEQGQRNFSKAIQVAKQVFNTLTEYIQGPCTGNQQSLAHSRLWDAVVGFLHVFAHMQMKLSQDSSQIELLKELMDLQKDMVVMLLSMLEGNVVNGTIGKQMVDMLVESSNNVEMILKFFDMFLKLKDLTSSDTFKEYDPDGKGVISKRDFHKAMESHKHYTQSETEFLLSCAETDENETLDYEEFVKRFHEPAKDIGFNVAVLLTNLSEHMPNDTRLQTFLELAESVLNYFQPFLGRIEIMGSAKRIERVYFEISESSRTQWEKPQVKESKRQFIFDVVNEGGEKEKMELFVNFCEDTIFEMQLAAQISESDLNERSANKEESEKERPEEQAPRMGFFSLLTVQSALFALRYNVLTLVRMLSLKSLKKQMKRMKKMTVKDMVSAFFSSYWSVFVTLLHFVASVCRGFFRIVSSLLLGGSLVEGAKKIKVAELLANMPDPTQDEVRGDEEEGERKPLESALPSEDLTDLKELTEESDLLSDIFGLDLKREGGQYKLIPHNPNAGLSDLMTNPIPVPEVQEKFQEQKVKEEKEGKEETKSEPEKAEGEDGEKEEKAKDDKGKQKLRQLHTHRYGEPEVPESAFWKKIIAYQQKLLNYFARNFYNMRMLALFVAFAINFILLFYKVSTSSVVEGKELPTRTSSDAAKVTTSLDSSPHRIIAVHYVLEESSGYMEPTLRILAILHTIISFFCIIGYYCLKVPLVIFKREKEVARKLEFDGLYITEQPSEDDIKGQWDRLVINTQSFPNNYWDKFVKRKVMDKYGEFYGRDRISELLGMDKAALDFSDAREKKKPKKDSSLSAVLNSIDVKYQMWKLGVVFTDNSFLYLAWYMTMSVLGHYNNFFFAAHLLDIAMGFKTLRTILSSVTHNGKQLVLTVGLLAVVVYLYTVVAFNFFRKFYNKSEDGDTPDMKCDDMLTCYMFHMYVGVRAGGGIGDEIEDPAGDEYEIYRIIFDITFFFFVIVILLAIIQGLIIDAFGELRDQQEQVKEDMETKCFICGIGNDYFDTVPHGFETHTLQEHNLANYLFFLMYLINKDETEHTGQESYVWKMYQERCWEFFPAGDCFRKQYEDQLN

F-CaM pre-incubated in H2O2 (F-CaM^Ox) (from UniProt P0DP23 1-149) (natural protein)
percent reduction of specific Z-line binding against F-CaM that was not oxidized: 20%
